In patent US20250327097A1, “ORGANISMS PRODUCING LESS CROTONIC ACID” (Global Bioenergies, priority 2021, published 2025):

B1: I283T-N285P-E286D-N287T-Q290E-S322T-N388M-K394R-C430A-L432F-L434W-S436N-G462P-A463P (protein)
chain: MFLKSLREQINLLKRQGDLRIINRPVDSYLEAAAIIRRSTETKAPVPLMTNIKGYPGCSIVGGLAALSSNPEYPLSRVAMSLGLSTTASAQSIVQYLIDGLKKTPYLPVEIDSNSAPCKQNILRGEDASLAHFPIPQVHQHDGNRYVNTWGVFIVESPDGQWCNWSIQRVQYLNDRQMIALVFPSQHISDIWEEWVKIGKPMPYALVQGCEPIVPYIAGLPLLERNVNEAEYIGALYGKGIEVVKCETHDLRVPASSEVVIEGYFAITREGVEGPFGEFAGYTPPDTSLEPILSITAISWQDDPIWPVVAEGKPVDEYHTCTGIGDAAAIQNVLLTANLPVSFVWVPLYSACHLMIVSINRHWRQTHPDLTSEQLTKKVGDVIHQTRMSIKLPRIVVLDDDVDPADTESLLWALATRIHPERKRYFYESAIFPWLNCYSEEERHNRKGKRVIIDALLPENHPPISSFDYAYPDDIKQRVLMHWETDFSHD
B2: I283T-N285P-N287T-Q290E-S322T-Q365M-N388M-K394R-C430A-L432F-L434W-S436N-G462P-A463P (protein)
chain: MFLKSLREQINLLKRQGDLRIINRPVDSYLEAAAIIRRSTETKAPVPLMTNIKGYPGCSIVGGLAALSSNPEYPLSRVAMSLGLSTTASAQSIVQYLIDGLKKTPYLPVEIDSNSAPCKQNILRGEDASLAHFPIPQVHQHDGNRYVNTWGVFIVESPDGQWCNWSIQRVQYLNDRQMIALVFPSQHISDIWEEWVKIGKPMPYALVQGCEPIVPYIAGLPLLERNVNEAEYIGALYGKGIEVVKCETHDLRVPASSEVVIEGYFAITREGVEGPFGEFAGYTPPETSLEPILSITAISWQDDPIWPVVAEGKPVDEYHTCTGIGDAAAIQNVLLTANLPVSFVWVPLYSACHLMIVSINRHWRMTHPDLTSEQLTKKVGDVIHQTRMSIKLPRIVVLDDDVDPADTESLLWALATRIHPERKRYFYESAIFPWLNCYSEEERHNRKGKRVIIDALLPENHPPISSFDYAYPDDIKQRVLMHWETDFSHD
B3: I283T-P284D-N285H-N287T-S322T-N388M-K394R-C430A-L432F-L434W-S436N-G462P-A463P (protein)
chain: MFLKSLREQINLLKRQGDLRIINRPVDSYLEAAAIIRRSTETKAPVPLMTNIKGYPGCSIVGGLAALSSNPEYPLSRVAMSLGLSTTASAQSIVQYLIDGLKKTPYLPVEIDSNSAPCKQNILRGEDASLAHFPIPQVHQHDGNRYVNTWGVFIVESPDGQWCNWSIQRVQYLNDRQMIALVFPSQHISDIWEEWVKIGKPMPYALVQGCEPIVPYIAGLPLLERNVNEAEYIGALYGKGIEVVKCETHDLRVPASSEVVIEGYFAITREGVEGPFGEFAGYTDHETSLQPILSITAISWQDDPIWPVVAEGKPVDEYHTCTGIGDAAAIQNVLLTANLPVSFVWVPLYSACHLMIVSINRHWRQTHPDLTSEQLTKKVGDVIHQTRMSIKLPRIVVLDDDVDPADTESLLWALATRIHPERKRYFYESAIFPWLNCYSEEERHNRKGKRVIIDALLPENHPPISSFDYAYPDDIKQRVLMHWETDFSHD
B4: I283T-N285P-N287T-Q290E-S322T-Q365S-N388M-K394R-C430A-L432F-L434W-S436N-G462P-A463P (protein)
chain: MFLKSLREQINLLKRQGDLRIINRPVDSYLEAAAIIRRSTETKAPVPLMTNIKGYPGCSIVGGLAALSSNPEYPLSRVAMSLGLSTTASAQSIVQYLIDGLKKTPYLPVEIDSNSAPCKQNILRGEDASLAHFPIPQVHQHDGNRYVNTWGVFIVESPDGQWCNWSIQRVQYLNDRQMIALVFPSQHISDIWEEWVKIGKPMPYALVQGCEPIVPYIAGLPLLERNVNEAEYIGALYGKGIEVVKCETHDLRVPASSEVVIEGYFAITREGVEGPFGEFAGYTPPETSLEPILSITAISWQDDPIWPVVAEGKPVDEYHTCTGIGDAAAIQNVLLTANLPVSFVWVPLYSACHLMIVSINRHWRSTHPDLTSEQLTKKVGDVIHQTRMSIKLPRIVVLDDDVDPADTESLLWALATRIHPERKRYFYESAIFPWLNCYSEEERHNRKGKRVIIDALLPENHPPISSFDYAYPDDIKQRVLMHWETDFSHD
B5: I283T-N285P-N287T-L289Y-Q290E-S322T-N388M-K394R-C430A-L432F-L434W-S436N-G462P-A463P (protein)
chain: MFLKSLREQINLLKRQGDLRIINRPVDSYLEAAAIIRRSTETKAPVPLMTNIKGYPGCSIVGGLAALSSNPEYPLSRVAMSLGLSTTASAQSIVQYLIDGLKKTPYLPVEIDSNSAPCKQNILRGEDASLAHFPIPQVHQHDGNRYVNTWGVFIVESPDGQWCNWSIQRVQYLNDRQMIALVFPSQHISDIWEEWVKIGKPMPYALVQGCEPIVPYIAGLPLLERNVNEAEYIGALYGKGIEVVKCETHDLRVPASSEVVIEGYFAITREGVEGPFGEFAGYTPPETSYEPILSITAISWQDDPIWPVVAEGKPVDEYHTCTGIGDAAAIQNVLLTANLPVSFVWVPLYSACHLMIVSINRHWRQTHPDLTSEQLTKKVGDVIHQTRMSIKLPRIVVLDDDVDPADTESLLWALATRIHPERKRYFYESAIFPWLNCYSEEERHNRKGKRVIIDALLPENHPPISSFDYAYPDDIKQRVLMHWETDFSHD
B6: I283L-N285P-N287T-Q290E-S322T-N388M-K394R-C430A-L432F-L434W-S436N (protein)
chain: MFLKSLREQINLLKRQGDLRIINRPVDSYLEAAAIIRRSTETKAPVPLMTNIKGYPGCSIVGGLAALSSNPEYPLSRVAMSLGLSTTASAQSIVQYLIDGLKKTPYLPVEIDSNSAPCKQNILRGEDASLAHFPIPQVHQHDGNRYVNTWGVFIVESPDGQWCNWSIQRVQYLNDRQMIALVFPSQHISDIWEEWVKIGKPMPYALVQGCEPIVPYIAGLPLLERNVNEAEYIGALYGKGIEVVKCETHDLRVPASSEVVIEGYFAITREGVEGPFGEFAGYLPPETSLEPILSITAISWQDDPIWPVVAEGKPVDEYHTCTGIGDAAAIQNVLLTANLPVSFVWVPLYSACHLMIVSINRHWRQTHPDLTSEQLTKKVGDVIHQTRMSIKLPRIVVLDDDVDPADTESLLWALATRIHPERKRYFYESAIFPWLNCYSEEERHNRKGKRVIIDALLPENHGAISSFDYAYPDDIKQRVLMHWETDFSHD
B7: I283T-N285P-N287T-L289A-Q290E-S322T-N388M-K394R-C430A-L432F-L434W-S436N-G462P-A463P (protein)
chain: MFLKSLREQINLLKRQGDLRIINRPVDSYLEAAAIIRRSTETKAPVPLMTNIKGYPGCSIVGGLAALSSNPEYPLSRVAMSLGLSTTASAQSIVQYLIDGLKKTPYLPVEIDSNSAPCKQNILRGEDASLAHFPIPQVHQHDGNRYVNTWGVFIVESPDGQWCNWSIQRVQYLNDRQMIALVFPSQHISDIWEEWVKIGKPMPYALVQGCEPIVPYIAGLPLLERNVNEAEYIGALYGKGIEVVKCETHDLRVPASSEVVIEGYFAITREGVEGPFGEFAGYTPPETSAEPILSITAISWQDDPIWPVVAEGKPVDEYHTCTGIGDAAAIQNVLLTANLPVSFVWVPLYSACHLMIVSINRHWRQTHPDLTSEQLTKKVGDVIHQTRMSIKLPRIVVLDDDVDPADTESLLWALATRIHPERKRYFYESAIFPWLNCYSEEERHNRKGKRVIIDALLPENHPPISSFDYAYPDDIKQRVLMHWETDFSHD
B8: I283H-P284D-N285M-N287T-S322T-N388M-K394R-C430A-L432F-L434W-S436N-G462P-A463P (protein)
chain: MFLKSLREQINLLKRQGDLRIINRPVDSYLEAAAIIRRSTETKAPVPLMTNIKGYPGCSIVGGLAALSSNPEYPLSRVAMSLGLSTTASAQSIVQYLIDGLKKTPYLPVEIDSNSAPCKQNILRGEDASLAHFPIPQVHQHDGNRYVNTWGVFIVESPDGQWCNWSIQRVQYLNDRQMIALVFPSQHISDIWEEWVKIGKPMPYALVQGCEPIVPYIAGLPLLERNVNEAEYIGALYGKGIEVVKCETHDLRVPASSEVVIEGYFAITREGVEGPFGEFAGYHDMETSLQPILSITAISWQDDPIWPVVAEGKPVDEYHTCTGIGDAAAIQNVLLTANLPVSFVWVPLYSACHLMIVSINRHWRQTHPDLTSEQLTKKVGDVIHQTRMSIKLPRIVVLDDDVDPADTESLLWALATRIHPERKRYFYESAIFPWLNCYSEEERHNRKGKRVIIDALLPENHPPISSFDYAYPDDIKQRVLMHWETDFSHD
B9: I283T-P284D-N285V-N287T-S322T-N388M-K394R-C430A-L432F-L434W-S436N-G462P-A463P (protein)
chain: MFLKSLREQINLLKRQGDLRIINRPVDSYLEAAAIIRRSTETKAPVPLMTNIKGYPGCSIVGGLAALSSNPEYPLSRVAMSLGLSTTASAQSIVQYLIDGLKKTPYLPVEIDSNSAPCKQNILRGEDASLAHFPIPQVHQHDGNRYVNTWGVFIVESPDGQWCNWSIQRVQYLNDRQMIALVFPSQHISDIWEEWVKIGKPMPYALVQGCEPIVPYIAGLPLLERNVNEAEYIGALYGKGIEVVKCETHDLRVPASSEVVIEGYFAITREGVEGPFGEFAGYTDVETSLQPILSITAISWQDDPIWPVVAEGKPVDEYHTCTGIGDAAAIQNVLLTANLPVSFVWVPLYSACHLMIVSINRHWRQTHPDLTSEQLTKKVGDVIHQTRMSIKLPRIVVLDDDVDPADTESLLWALATRIHPERKRYFYESAIFPWLNCYSEEERHNRKGKRVIIDALLPENHPPISSFDYAYPDDIKQRVLMHWETDFSHD
B10: I283Q-P284D-N285M-N287T-S322T-N388M-K394R-C430A-L432F-L434W-S436N-G462P-A463P (protein)
chain: MFLKSLREQINLLKRQGDLRIINRPVDSYLEAAAIIRRSTETKAPVPLMTNIKGYPGCSIVGGLAALSSNPEYPLSRVAMSLGLSTTASAQSIVQYLIDGLKKTPYLPVEIDSNSAPCKQNILRGEDASLAHFPIPQVHQHDGNRYVNTWGVFIVESPDGQWCNWSIQRVQYLNDRQMIALVFPSQHISDIWEEWVKIGKPMPYALVQGCEPIVPYIAGLPLLERNVNEAEYIGALYGKGIEVVKCETHDLRVPASSEVVIEGYFAITREGVEGPFGEFAGYQDMETSLQPILSITAISWQDDPIWPVVAEGKPVDEYHTCTGIGDAAAIQNVLLTANLPVSFVWVPLYSACHLMIVSINRHWRQTHPDLTSEQLTKKVGDVIHQTRMSIKLPRIVVLDDDVDPADTESLLWALATRIHPERKRYFYESAIFPWLNCYSEEERHNRKGKRVIIDALLPENHPPISSFDYAYPDDIKQRVLMHWETDFSHD

System: 3-methylcrotonic acid
Type: biochemical, Yersinia frederiksenii
Design: key: “+” representing a low increase in activity; “++++” representing a high increase in activity

Molecule	Activity relative to WT
B1	++++
B2	++++
B3	++++
B4	++++
B5	++++
B6	++++
B7	++++
B8	++++
B9	++++
B10	++++
